The values that follow come from the DeepSol protein solubility set.

The nature of this data set: soluble on expression in E. coli; label from the status in PepcDB or PDB records.
Consider “MAHHHHHHMAARTDDPRLLSLFSAQREEDADIVIIGFPYDEGCVRNGGRAGAKKGPAAFRFFLQRLGSVNNLELNVDASHLKLYDAGDITASTLEEAHEKLESKVFTVLARGAFPFVIGGGNDQSAPNGRAMLRAFPGDVGVINVDSHLDVRPPLQDGRVHSGTPFRQLLEESSFSGKRFVEFACQGSQCGALHAQYVRDHQGHLMWLSEVRKKGAVAALEDAFGLTGKNTFFSFDVDSLKSSDMPGVSCPAAVGLSAQEAFDMCFLAGKTPTVMMMDMSELNPLVEEYRSPRVAVYMFYHFVLGFATRPKPKAEN”, for which the “soluble on expression in E. coli” value was “soluble”.

Take “MGITSAGMQSRDAECGERIFTRTVRQVKQQTTVHYFVSPPRPPVKTNPQAKTLISTRLEVATRKKRRVLFILEHHHHHH”: the “soluble on expression in E. coli” value is listed as “not soluble”.

For “MDMRSHEMIERRREDNGNNNGGVVISNIISTNIDDNCNGNNNNTRVSCNSQTLDHHQSKSPSSFSISAAAKPTVRYRECLKNHAASVGGSVHDGCGEFMPSGEEGTIEALRCAACDCHRNFHRKEMDGVGSSDLISHHRHHHYHHNQYGGGGGRRPPPPNMMLNPLMLPPPPNYQPIHHHKYGMSPPGGGGMVTPMSVAYGGGGGGAESSSEDLNLYGQSSGEGAGAAAGQMAFSMSSSKKRFRTKFTTDQKERMMDFAEKLGWRMNKQDEEELKRFCGEIGVKRQVFKVWMHNNKNNAKKPPTPTTTL”, the “soluble on expression in E. coli” value was “not soluble”. Consider “MGSDKIHHHHHHMEKKRILFLANHFITLYSFRKEMIKEMVKKGHELYLSLPKSEENKYFEDLGCHIVETEIDRRGVNPMKDLKLIYFYKKMIPLVNPDIIFSYTIKPNIYGTIASNGKYKQVCNITGTGETFLKRSIVSTICKVLYKLSIKKCYKVFFQNTGDRDFFIKEGLIRENYAMLPGSGCNLQQHVFMPLPEGDEIRFLFIGRVMKLKGIDQYLQAAEIVKKKYPNTKFYIAGWNEQLEYMKLVEEAQKTGSVEYIGFRKDIDQWIEKCHCTILPSHGGEGVPNVLLESSATGRICIGSKINGTMDVIDDGKTGYLFNTGDGEDLARQIEKFIQLSPEEKASMGKVAREKVEREFDRQIVVKAYLDEVTKC”, for which the “soluble on expression in E. coli” value is reported as “not soluble”. For “MGSDKIHHHHHHLTYNLLEGSGWMLKIYQVDSFTAVPFGGNPAGVCLLDEEIDERLYPRIASEMNLSETAFVRPGDEKNTYGLRWFTPKVEVKMCGHATLATAWIHFTELGVKGEISYETLSGKLGVRYVDGKIEMNFPSDNPYRVRIDEMLGRITGVEGECYYSSLTEKLLYIISSKSKLENLSFDFSLLETCDFGYTVKGLIVSSPGDEKFDFYSRYFAPWVGIDEDPVTGSAHTVLGPFWSEKLGRKNLRACQLSSRRGELDLELLPNSRILILGKAVTVIRGTISI”, the “soluble on expression in E. coli” value is recorded as “not soluble”.

Regarding “MGSDKIHHHHHHMKTLQTHRVLQALIGHFTPFLESGITELMINTEQELWLYKVNNTREKRGHALFDKAFLLRFCEQLASFRGLFFDEEHPTLNCSIPFTRYRVSANHFSITTNNQITLNIRVPRLKPLSLEDFTFKASDPKSLKDLALKGHNILISGETSSGKTSLLNALLDCVNKDERVVSVEDSQELDLKAFSNCVGLLVGKQENTRFNYEDALNMAMRLNPDRLIVGEIDTRNAALFLRLGNTGHKGMLSTIHANSAQNTLEALSLNLSMRYMYSLDKDLMRAYFKSAIDVIVHVNRINNERQIAEVLWTKEL”, the “soluble on expression in E. coli” value was “not soluble”. For the sequence “MIRNPKIYIIILNYNAYEDTLECVKSIGNIDYDNYELVLVDNSSTDDSYVKLKESLPSYNIIKSKENLGYANGNNIGIKYALENGADYICILNNDVVVEKDFLNKLVDKIIEKEDVGIVGSCICDYYRREIIQGMGAHINLYFAAARRYFKGKNYNEIEKKDIFVDYLEGACFLVKSEVFEKIGLIPENYFLFFEETEFCTRAINAGYKIMCIYESKVYHKGSATINKFGSLSYAYLNRNRVIFVRRNSKWYQKIIFAIYIFIEAFGRIVIRKEPLTLFKYILGGFKSNKESIDVIDVKSYVKLEHHHHHH”, the “soluble on expression in E. coli” value is on record as “not soluble”. Consider “SEAQQKNYTFRCLQMSSFANRSWSRTDSVVWLGDLQTHRWSNDSATISFTKPWSQGKLSNQQWEKLQHMFQVYRVSFTRDIQELVKMMSPKEDYPIEIQLSAGCEMYPGNASESFLHVAFQGKYVVRFWGTSWQTVPGAPSWLDLPIKVLNADQGTSATVQMLLNDTCPLFVRGLLEAGKSDLEKQEKPVAWLSSVPSSAHGHRQLVCHVSGFYPKPVWVMWMRGDQEQQGTHRGDFLPNADETWYLQATLDVEAGEEAGLACRVKHSSLGGQDIILYWGSLHHILDAQKMVWNHRHHHHHH”, for which the “soluble on expression in E. coli” value is given as “soluble”.

With “GMGQRSDSDHVMAEATTDKRQGHTRGRTGNDRRTQIIKVATELFREKGYYATSLDDIADRIGFTKPAIYYYFKSKEDVLFAIVNSIVDEALERFHAIAAGPGSPGERIHALLVEHTRTILRNLDANTLFYNERGLLSPEREREMRKREREYTEIMQRLYAEGVATGELLDVDPTVATATLLGAAIWTYRWYDPEGRLSADEVVEQITRLLLNGYRRPA”, the “soluble on expression in E. coli” value was “soluble”. For “MTDLELQQLVATISMHDFHRPFQHRAYFNARLRTTGGRYQLASHDIDINPKMLTDFDEATLIGVIKHELCHYHLHLTKRGYRHRDADFKRLLAQVGGSRYAPAPKQATARPYRYIYECQRCGRRYYRKRRMDTRRYTCGRCQGPIKLVLEHHHHHH”, the “soluble on expression in E. coli” value is listed as “soluble”.

For the sequence “MGSDKIHHHHHHMEEIVLFHTNDLHSHFENWPKIRRLVKAKRSLYQKEGKTVVTIDLGDFSDRCHPLTEATDGRANVAIMNTLAYDLVTIGNNEGIGNSKKQLEHLYDQATFEVVLANLEEPKTQTLPDFCQAYKIMTTKEGTKLGFIGLTAPFPLTYNPNGWTIKQVEAVLPQLITEVAPQCDVLILLSHLGIDTDFMIAANYPEIQVILGSHTHHLFKDGEKINHVQLAAAGKYGQYIGEVHLFVDADTKQVTSYAKTIETASLEEQATDAKEIAGYLTEGHRLLQAQQIAQIPETLSTDLRQPHAFITVALKALKEAGQTEAAVLNNGLFLADLPEGIINADQLHEALPHPMHLIKVTLKGSDMSRLIREMEKSRQFLRKFPIRGMGFRGKIFGELCYDGIRFEPNSQTVFWQGKPIQPEQKYTLTTVDHFQFVPFFPTIELVGEVEFLFPDVLRTVVANYLHAHYPIK”, the “soluble on expression in E. coli” value was “not soluble”. Under “MRILHTSDWHLGQNFYSKSREAEHQAFLDWLLETAQTHQVDAIIVAGDVFDTGSPPSYARTLYNRFVVNLQQTGCHLVVLAGNHDSVATLNESRDIMAFLNTTVVASAGHAPQILPRRDGTPGAVLCPIPFLRPRDIITSQAGLNGIEKQQHLLAAITDYYQQHYADACKLRGDQPLPIIATGHLTTVGASKSDAVRDIYIGTLDAFPAQNFPPADYIALGHIHRAQIIGGMEHVRYCGSPIPLSFDECGKSKYVHLVTFSNGKLESVENLNVPVTQPMAVLKGDLASITAQLEQWRDVSQEPPVWLDIEITTDEYLHDIQRKIQALTESLPVEVLLVRRSREQRERVLASQQRETLSELSVEEVFNRRLALEELDESQQQRLQHLFTTTLHTLAGEHEA” stands “soluble”; under “MVAQNPTSISSGGRKQPQKQDKVQKKQLKKIYVVKIKRIPFGFFEKELLGYFRQFGNVLRIRVARNRRTGNHKGWAYVGFDNKAVAEIAAESMNGYLMFEQRLGCTVMKPELIPKAMRHGPLLVMRPSYLGIAKKDTIARNNTTGKNDVINAKKRVQNLNKTLKKLQNMGINYDFSVSGTPRTPLKKVIDNEVQFISDVTPKSTTPKIVKAATPKAATPKAVTPKQATPKVSTPVTKKVVIKTPKTEKPEPKQFTPKTRAGKKAAAAATPQAKSTLSNTILKSVAASARPAAVEKKTLRSRGKKKSL”, “soluble”; under “MKEELIERFTRYVKIDTQSNEDSHTVPTTPGQIEFGKLLVEELKEVGLTEVTMDDNGYVMATLPANTDKDVPVIGFLAHLDTATDFTGKNVKPQIHENFDGNAITLNEELNIVLTPEQFPELPSYKGHTIITTDGTTLLGADDKAGLTEIMVAMNYLIHNPQIKHGKIRVAFTPDEEIGRGPAHFDVEAFGASFAYMMDGGPLGGLEYESFNAAGAKLTFNGTNTHPGTAKNKMRNATKLAMEFNGHLPVEEAPEYTEGYEGFYHLLSLNGDVEQSKAYYIIRDFDRKNFEARKNTIENIVKQMQEKYGQDAVVLEMNDQYYNMLEKIEPVREIVDIAYEAMKSLNIEPNIHPIRGGTDGSQLSYMGLPTPNIFTGGENYHGKFEYVSVDVMEKAVQVIIEIARRFEEQA”, “not soluble”.
